The source of these data is patent US20150231236A1, “METHODS FOR TREATING PATIENTS WITH HYPERCHOLESTEROLEMIA THAT IS NOT ADEQUATELY CONTROLLED BY MODERATE-DOSE STATIN THERAPY” (Regeneron Pharmaceuticals, Inc., priority 2014, published 2015).

The test system of data set [1] is patients with hypercholesterolemia at high CV risk not adequately controlled with atorvastatin (20 mg or 40 mg). Nature of the data set: Example 2: anti-mAb316P anti-drug antibody (ADA) status. Type of data set: in vivo, human.
Data set [2] shares this test system. The data set is described as follows: Example 2: safety, treatment-emergent adverse events in pooled treatment groups.
Protocol: For the pooled data, three treatment groups are formed by combining treatment arms regardless of the atorvastatin doses as follows:
(2) EZE treatment group: pooling EZE+atorva 20 mg arm and EZE+atorva 40 mg arm;
Where [3] appears, read: of the five ADA positive patients.
Where [4] appears, read: Safety Population, pooled treatment groups.

As to “mAb316P: human anti-PCSK9 antibody; heavy chain SEQ ID NO:5, light chain SEQ ID NO:9”, the “Treatment-emergent ADA positive responses” value in data set [1] (5 of 99 patients in the pooled mAb316P add-on group) turned out to be 5.1%. Also, the overall immunogenicity entry in data set [1] (in vivo) was “immunogenicity was low”. Also, the “positive mAb316P-neutralizing antibody status” value in data set [1] (of patients with positive ADA status) is “One and one”. Also, in data set [1] (setting [3]), the “treatment-emergent ADA: persistent responses” value is on record as “three” and the “treatment-emergent ADA: transient response” value is on record as “one”. In data set [2] (setting [4]), the “General Allergic TEAEs (SMQ Hypersensitivity)” value is on record as 2 (1.9%) patients (%); the “SOC Injury, poisoning and procedural complications” value is on record as 15 (14.4%) patients (%); the “SOC Musculoskeletal and connective tissue disorders” value was 24 (23.1%) patients (%); the “SOC Neoplasms benign, malignant and unspecified (incl cysts and polyps)” value was 3 (2.9%) patients (%). Also, in data set [2] (setting [4]), the “SOC Nervous system disorders” value is reported as 10 (9.6%) patients (%), the TEAEs is given as 68 (65.4%) patients (%), the “Treatment-emergent SAEs” value is reported as 4 (3.8%) patients (%) and the “Treatment-emergent injection site reactions (ISRs)” value is given as 3 (2.9%) patients (%). Also, in data set [2] (setting [4]), the Treatment-emergent neurologic disorders was 3 (2.9%) patients (%) and the “discontinued study treatment early due to a treatment emergent adverse event (TEAE)” value is listed as 7 (6.7%) patients (%). Further, the “Treatment-emergent cardiovascular events adjudicated positively” value in data set [2] (Safety Population, pooled treatment groups, ischemia driven coronary revascularization procedure) is listed as 2 (1.9%) patients (%). Also, in data set [2] (pooled mAb316P group), the “TEAE Back pain” value is reported as 7 patients, the “TEAE Headache” value amounted to 4 patients, the “TEAE Hypertension” value turned out to be 5 patients and the “TEAE Muscle spasms” value came to 4 patients. Also, in data set [2] (pooled mAb316P group), the “TEAE influenza” value is listed as 3 patients, the “TEAE nasopharyngitis” value was found to be 5 patients, the “TEAE upper respiratory tract infection” value was 5 patients and the “TEAE urinary tract infection” value turned out to be 3 patients.
